Data as given in patent US20150203575A1 (Genentech, published 2015).
Read-outs that look alike come from different tables or passages of the source.

Assays:
[1] = target: T1, human COLEC12 expressed on cells (human, UniProt Q5KU26 1-742); experiment: AP staining of transfected COS7 cells with AP fusion supernatant
T1 construct: also called hCOLEC12; C-terminal his tagged hCOLEC12
Experimental: (§1) 2931 cells were transfected with PILRα-AP-pRK5 constructs and Fugene 6 Transfection Reagent (Roche) according to the manufacturer's instructions. Three days after transfection, supernatants were collected for screening. COS7 cells were plated in a 24-well format and transfected with 10 ul of Origene library DNA (Origene, human DNA library containing 20 k genes) per well with Fugene 6 Reagent. Two days later, cells were incubated with human or mouse PILRα-Ap supernatants for 45 min at room temperature (RT). Then cells were fixed with 4% PFA for 15 min at RT. After removing fixation buffer, cells were blocked with 100 mM Glycine in HBS (20 mM Hepes, PH7.2, 150 mM NaCl) for 15 min at RT. Cells were then rinsed and incubated in HBS for 90 min at 65° C. HBS was removed and Western Blue Substrate (Promega) was added and color was developed for 30 min to 1 hr.

[2] = target: T2, human NPDC1 expressed on cells (human, UniProt Q9NQX5 35-325); experiment: as above
T2 construct: also called hNPDC1; hNPCD1
T2 sequence: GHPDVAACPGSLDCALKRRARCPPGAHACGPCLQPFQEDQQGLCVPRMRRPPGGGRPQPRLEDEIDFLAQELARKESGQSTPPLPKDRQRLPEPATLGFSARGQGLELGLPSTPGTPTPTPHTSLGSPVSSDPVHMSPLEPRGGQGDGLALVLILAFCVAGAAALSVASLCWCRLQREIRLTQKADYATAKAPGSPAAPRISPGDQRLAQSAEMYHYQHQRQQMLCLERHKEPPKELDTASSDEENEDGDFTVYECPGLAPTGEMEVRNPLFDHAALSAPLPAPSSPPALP
Experimental: as §1

[3] = target: T3, LRRTM4 expressed on cells (human, UniProt Q86VH4 31-590); experiment: flow cytometry, transfected 293T cells, 50 µg/ml
T3 construct: Clone of the Origene human cDNA library; also called Leucine rich repeat transmembrane neuronal 4
T3 sequence (Q86VH4 31-590 limits assumed): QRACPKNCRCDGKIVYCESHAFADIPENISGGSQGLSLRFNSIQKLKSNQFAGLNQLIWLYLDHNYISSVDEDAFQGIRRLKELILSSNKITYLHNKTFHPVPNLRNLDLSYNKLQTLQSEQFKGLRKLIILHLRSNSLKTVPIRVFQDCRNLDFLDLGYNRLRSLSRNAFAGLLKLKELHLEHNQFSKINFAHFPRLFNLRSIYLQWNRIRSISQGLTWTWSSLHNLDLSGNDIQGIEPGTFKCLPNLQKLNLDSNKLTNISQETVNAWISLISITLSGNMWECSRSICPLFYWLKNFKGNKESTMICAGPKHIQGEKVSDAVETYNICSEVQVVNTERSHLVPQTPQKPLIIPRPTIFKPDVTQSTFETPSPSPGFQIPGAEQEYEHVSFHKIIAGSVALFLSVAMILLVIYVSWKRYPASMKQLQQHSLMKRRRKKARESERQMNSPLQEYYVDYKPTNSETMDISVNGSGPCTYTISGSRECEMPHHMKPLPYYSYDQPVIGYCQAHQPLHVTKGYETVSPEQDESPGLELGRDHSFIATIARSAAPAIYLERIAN

[4] = target: T3, LRRTM4 expressed on cells; experiment: flow cytometry, transfected 293T cells, 2 µg/ml
[5] = target: T4, MAG expressed on cells (human, UniProt P20916 20-626); experiment: flow cytometry, transfected 293T cells, 2 µg/ml
T4 construct: Clone of the Origene human cDNA library; also called Myelin associated glycoprotein; SIGLEC4A
T4 sequence: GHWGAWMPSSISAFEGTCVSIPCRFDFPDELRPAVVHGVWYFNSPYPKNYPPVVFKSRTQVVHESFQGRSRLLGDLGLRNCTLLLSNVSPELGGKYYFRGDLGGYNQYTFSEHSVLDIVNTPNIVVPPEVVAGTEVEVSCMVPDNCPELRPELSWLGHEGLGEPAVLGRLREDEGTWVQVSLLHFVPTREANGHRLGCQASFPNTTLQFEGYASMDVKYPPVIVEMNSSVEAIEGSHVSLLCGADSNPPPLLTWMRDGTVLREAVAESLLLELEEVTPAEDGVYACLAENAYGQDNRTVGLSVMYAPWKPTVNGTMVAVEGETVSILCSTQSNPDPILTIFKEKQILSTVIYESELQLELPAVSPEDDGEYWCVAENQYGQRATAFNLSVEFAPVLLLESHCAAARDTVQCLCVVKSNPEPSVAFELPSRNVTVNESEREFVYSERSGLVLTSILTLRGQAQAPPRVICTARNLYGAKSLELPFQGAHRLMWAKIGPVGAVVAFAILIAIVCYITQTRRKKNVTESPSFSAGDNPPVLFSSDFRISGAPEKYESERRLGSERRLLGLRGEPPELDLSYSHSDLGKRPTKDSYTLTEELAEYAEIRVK

[6] = target: T3, LRRTM4 expressed on cells; experiment: flow cytometry, transfected 293T cells, 50 µg/ml; remark: listed apart in the source
[7] = target: T4, MAG expressed on cells; experiment: flow cytometry, transfected 293T cells, 50 µg/ml
[8] = target: T5, PSS8 expressed on cells (human, UniProt Q16651 30-343); experiment: flow cytometry, transfected 293T cells, 50 µg/ml
T5 construct: Clone of the Origene human cDNA library; also called Protease serine 8; prostasin
T5 sequence (Q16651 30-343 limits assumed): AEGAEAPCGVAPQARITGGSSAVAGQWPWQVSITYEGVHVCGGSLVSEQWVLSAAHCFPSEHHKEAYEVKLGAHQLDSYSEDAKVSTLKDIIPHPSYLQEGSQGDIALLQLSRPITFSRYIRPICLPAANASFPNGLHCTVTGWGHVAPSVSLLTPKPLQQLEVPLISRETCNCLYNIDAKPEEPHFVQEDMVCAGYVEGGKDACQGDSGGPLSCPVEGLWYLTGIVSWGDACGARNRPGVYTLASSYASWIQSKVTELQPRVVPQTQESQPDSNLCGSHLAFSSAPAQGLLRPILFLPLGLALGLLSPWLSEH

[9] = target: T6, IL-2Ra expressed on cells (human, UniProt P01589 22-272); experiment: flow cytometry, transfected 293T cells, 50 µg/ml
T6 construct: Clone of the Origene human cDNA library; also called Interleukin 2 receptor alpha
T6 sequence: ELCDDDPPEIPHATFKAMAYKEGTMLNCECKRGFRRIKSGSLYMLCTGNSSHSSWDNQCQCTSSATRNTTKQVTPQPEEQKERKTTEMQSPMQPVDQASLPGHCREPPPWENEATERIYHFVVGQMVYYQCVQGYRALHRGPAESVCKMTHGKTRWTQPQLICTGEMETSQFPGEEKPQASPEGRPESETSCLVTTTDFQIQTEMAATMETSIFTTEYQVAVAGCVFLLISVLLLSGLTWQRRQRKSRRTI

[10] = target: T3, LRRTM4 expressed on cells; experiment: flow cytometry, transfected 293T cells, 2 µg/ml; remark: listed apart in the source
[11] = target: T7, CLEC4G expressed on cells (human, UniProt Q6UXB4 1-293); experiment: flow cytometry, transfected 293T cells, 50 µg/ml
T7 construct: Clone of the Origene human cDNA library; also called C type lectin superfamily 4 member G
T7 sequence: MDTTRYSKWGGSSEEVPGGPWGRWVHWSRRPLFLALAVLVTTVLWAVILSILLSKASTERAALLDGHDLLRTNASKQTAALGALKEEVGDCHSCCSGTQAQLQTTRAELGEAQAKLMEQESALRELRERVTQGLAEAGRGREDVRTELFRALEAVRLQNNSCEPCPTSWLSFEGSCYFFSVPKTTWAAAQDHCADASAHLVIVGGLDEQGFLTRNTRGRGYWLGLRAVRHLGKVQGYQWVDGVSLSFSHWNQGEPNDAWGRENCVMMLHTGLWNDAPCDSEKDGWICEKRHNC

[12] = target: T7, CLEC4G expressed on cells; experiment: flow cytometry, transfected 293T cells, 2 µg/ml
[13] = target: T1, human COLEC12 expressed on cells; experiment: flow cytometry, transfected 293T cells, 2 µg/ml
[14] = target: T4, MAG expressed on cells; experiment: flow cytometry, transfected 293T cells
[15] = target: T7, CLEC4G expressed on cells; experiment: flow cytometry, transfected 293T cells, 2 µg/ml; remark: listed apart in the source
[16] = target: T1, human COLEC12 expressed on cells; experiment: flow cytometry, transfected 293T cells, 2 µg/ml; remark: listed apart in the source

T1 sequence (Q5KU26 whole entry S522P/G606S, the tested form may be a part): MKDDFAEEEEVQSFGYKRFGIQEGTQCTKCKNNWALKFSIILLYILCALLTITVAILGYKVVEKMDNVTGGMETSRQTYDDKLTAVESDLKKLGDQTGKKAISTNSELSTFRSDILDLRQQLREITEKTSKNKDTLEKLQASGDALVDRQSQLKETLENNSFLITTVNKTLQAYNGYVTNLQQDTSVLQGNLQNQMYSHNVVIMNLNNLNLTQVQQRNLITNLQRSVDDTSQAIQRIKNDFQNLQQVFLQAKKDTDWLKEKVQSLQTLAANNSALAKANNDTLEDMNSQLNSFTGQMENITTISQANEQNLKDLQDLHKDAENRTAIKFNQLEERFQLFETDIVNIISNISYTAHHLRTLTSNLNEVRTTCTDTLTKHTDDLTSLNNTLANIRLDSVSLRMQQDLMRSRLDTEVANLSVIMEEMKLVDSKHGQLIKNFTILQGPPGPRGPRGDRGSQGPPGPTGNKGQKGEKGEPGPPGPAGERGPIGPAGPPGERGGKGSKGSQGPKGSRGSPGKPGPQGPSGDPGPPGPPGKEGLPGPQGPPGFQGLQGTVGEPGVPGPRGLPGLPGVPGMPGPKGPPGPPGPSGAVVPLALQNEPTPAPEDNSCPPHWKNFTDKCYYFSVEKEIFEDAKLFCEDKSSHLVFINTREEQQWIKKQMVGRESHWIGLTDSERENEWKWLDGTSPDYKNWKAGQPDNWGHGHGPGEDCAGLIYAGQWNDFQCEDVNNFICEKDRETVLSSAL

B1: hPILRα-AP (other)
chain: QPSGSTGSGPSYLYGVTQPKHLSASMGGSVEIPFSFYYPWELATAPDVRISWRRGHFHRQSFYSTRPPSIHKDYVNRLFLNWTEGQKSGFLRISNLQKQDQSVYFCRVELDTRSSGRQQWQSIEGTKLSITQAVTTTTQRPSSMTTTWRLSSTTTTTGLRVTQGKRRSDSWHISLET
notes: Used as culture supernatant; also called human PILRα-AP; Alkaline phosphatase (AP)-tagged PILRα construct; not shown: C-terminal alkaline phosphatase (AP) tag
[1]
  binding result: binds
[2]
  binding result: binds

B2: mPILRα-Fc (Fc fusion)
chain: not shown
notes: also called mouse PILRα-Fc; WT mPILRα-Fc; not shown: Fc of mouse IgG2a (PILRα-mIgG2a, called PILRα-Fc)
[3]
  % cells in lower right quadrant: 16.6%
[4]
  % cells in lower right quadrant: 2.68%
[5]
  % cells in lower right quadrant: 0.039%
[6]
  % cells in lower right quadrant: 16.6%
[7]
  % cells in lower right quadrant: 0.55%
[8]
  % cells in lower right quadrant: 30.6%
[9]
  % cells in lower right quadrant: 55.7%
[10]
  % cells in lower right quadrant: 2.68%
[11]
  % cells in lower right quadrant: 85.5%
[12]
  % cells in lower right quadrant: 69.9%
[13]
  % cells in lower right quadrant: 0.082%
[14]
  binding result: no binding (tested: 50 µg/ml)
[15]
  % cells in lower right quadrant: 69.9%
[16]
  % cells in lower right quadrant: 0.082%

B3: mPILRαR133A-Fc (Fc fusion)
chain: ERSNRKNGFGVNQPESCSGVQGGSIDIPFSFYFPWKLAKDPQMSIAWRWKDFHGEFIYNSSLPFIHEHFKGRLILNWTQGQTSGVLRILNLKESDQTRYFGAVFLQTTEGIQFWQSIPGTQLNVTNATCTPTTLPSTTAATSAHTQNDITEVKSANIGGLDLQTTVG
notes: Arg mutant of mPILRα-Fc; also called mPILRα133A-Fc; variant mPILRα (R133A); not shown: Fc of mouse IgG2a (PILRα-mIgG2a, called PILRα-Fc)
[3]
  % cells in lower right quadrant: 0.019%
[4]
  % cells in lower right quadrant: 0.025%
[5]
  % cells in lower right quadrant: 0%
[6]
  % cells in lower right quadrant: 0.019%
[7]
  % cells in lower right quadrant: 0%
[10]
  % cells in lower right quadrant: 0.025%
[11]
  % cells in lower right quadrant: 0.045%
[12]
  % cells in lower right quadrant: 0.044%
[13]
  % cells in lower right quadrant: 0.014%
[14]
  binding result: no binding (tested: 50 µg/ml)
[15]
  % cells in lower right quadrant: 0.044%
[16]
  % cells in lower right quadrant: 0.014%
